Experimental data as given in US20030198640A1 (Human Genome Sciences, published 2003).

Experiments:
Experiment in all cases: flow cytometry on transiently transfected cells
[1] = target: T1, DR4 on transiently transfected cells (UniProt O00220 24-468, limits assumed)
T1 construct: whole, on cells
T1 sequence (looked up): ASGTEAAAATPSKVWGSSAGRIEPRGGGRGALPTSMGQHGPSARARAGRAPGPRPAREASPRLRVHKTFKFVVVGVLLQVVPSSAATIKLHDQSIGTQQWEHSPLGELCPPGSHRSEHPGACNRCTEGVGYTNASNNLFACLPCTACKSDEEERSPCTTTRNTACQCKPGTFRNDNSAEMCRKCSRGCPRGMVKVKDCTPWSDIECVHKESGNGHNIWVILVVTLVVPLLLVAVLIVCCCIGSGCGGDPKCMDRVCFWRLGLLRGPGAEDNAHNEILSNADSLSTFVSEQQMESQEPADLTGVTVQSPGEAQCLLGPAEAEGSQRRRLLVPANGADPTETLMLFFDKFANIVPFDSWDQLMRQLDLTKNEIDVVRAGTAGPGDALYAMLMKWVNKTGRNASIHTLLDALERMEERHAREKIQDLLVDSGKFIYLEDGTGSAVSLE
Description: (§1) One million cells, in 0.1 ml of FACS buffer (PBS, 0.1% BSA, 0.1% NaN₃), were incubated with 0.1-1 microgram of protein or antibody at RT for 15 min. The cells were washed with 3 ml of FACS buffer, reacted with biotinylated primary antibody, and stained with PE-conjugated secondary antibody at RT for 15 min. Cells were then washed again, resuspended in 0.5 microgram/ml of propidium iodide, and live cells were gated and analyzed on a FACScan using the CellQuest software (BD Biosciences).

[2] = target: T2, CD30 on transiently transfected cells (UniProt P28908 19-595, limits assumed)
T2 construct: whole, on cells
T2 sequence (looked up): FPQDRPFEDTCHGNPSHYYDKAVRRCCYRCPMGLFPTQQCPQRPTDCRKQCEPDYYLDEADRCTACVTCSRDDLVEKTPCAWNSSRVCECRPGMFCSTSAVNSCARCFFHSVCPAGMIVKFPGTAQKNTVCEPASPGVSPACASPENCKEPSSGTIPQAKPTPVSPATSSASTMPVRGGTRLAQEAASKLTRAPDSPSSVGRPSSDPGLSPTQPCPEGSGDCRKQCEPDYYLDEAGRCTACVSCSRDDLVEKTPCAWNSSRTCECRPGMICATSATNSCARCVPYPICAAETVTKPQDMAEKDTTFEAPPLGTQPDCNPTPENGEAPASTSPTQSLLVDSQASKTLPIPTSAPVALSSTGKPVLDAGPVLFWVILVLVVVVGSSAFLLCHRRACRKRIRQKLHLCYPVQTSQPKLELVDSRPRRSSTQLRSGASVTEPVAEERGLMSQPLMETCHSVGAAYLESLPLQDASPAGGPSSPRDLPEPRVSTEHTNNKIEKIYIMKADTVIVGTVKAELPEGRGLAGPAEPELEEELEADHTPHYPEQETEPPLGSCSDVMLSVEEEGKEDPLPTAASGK
Description: as §1

[3] = target: T3, DcR2 on transiently transfected cells (UniProt Q9UBN6 56-386, limits assumed)
T3 construct: whole, on cells
T3 sequence (looked up): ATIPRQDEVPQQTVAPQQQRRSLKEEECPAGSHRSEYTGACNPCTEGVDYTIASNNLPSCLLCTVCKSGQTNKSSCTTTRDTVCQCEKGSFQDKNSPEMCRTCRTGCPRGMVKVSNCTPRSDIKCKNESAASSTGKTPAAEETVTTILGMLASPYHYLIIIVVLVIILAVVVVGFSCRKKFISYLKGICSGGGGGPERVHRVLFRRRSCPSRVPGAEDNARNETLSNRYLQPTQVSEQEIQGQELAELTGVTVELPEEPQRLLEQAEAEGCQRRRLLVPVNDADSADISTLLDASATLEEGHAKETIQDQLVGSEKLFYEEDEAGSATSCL
Description: as §1

[4] = target: T4, HveA on transiently transfected cells (UniProt Q92956 39-283, limits assumed)
T4 construct: whole, on cells
T4 sequence (looked up): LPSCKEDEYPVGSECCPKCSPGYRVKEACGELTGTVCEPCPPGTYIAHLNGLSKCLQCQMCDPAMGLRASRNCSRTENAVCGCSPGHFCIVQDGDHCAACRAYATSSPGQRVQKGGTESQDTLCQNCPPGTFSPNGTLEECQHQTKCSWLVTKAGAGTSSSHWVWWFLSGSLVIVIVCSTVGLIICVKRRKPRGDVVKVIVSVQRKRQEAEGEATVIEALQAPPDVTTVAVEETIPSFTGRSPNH
Description: as §1

[5] = target: T5, DR6 on transiently transfected cells (UniProt O75509 42-655, limits assumed)
T5 construct: whole, on cells
T5 sequence (looked up): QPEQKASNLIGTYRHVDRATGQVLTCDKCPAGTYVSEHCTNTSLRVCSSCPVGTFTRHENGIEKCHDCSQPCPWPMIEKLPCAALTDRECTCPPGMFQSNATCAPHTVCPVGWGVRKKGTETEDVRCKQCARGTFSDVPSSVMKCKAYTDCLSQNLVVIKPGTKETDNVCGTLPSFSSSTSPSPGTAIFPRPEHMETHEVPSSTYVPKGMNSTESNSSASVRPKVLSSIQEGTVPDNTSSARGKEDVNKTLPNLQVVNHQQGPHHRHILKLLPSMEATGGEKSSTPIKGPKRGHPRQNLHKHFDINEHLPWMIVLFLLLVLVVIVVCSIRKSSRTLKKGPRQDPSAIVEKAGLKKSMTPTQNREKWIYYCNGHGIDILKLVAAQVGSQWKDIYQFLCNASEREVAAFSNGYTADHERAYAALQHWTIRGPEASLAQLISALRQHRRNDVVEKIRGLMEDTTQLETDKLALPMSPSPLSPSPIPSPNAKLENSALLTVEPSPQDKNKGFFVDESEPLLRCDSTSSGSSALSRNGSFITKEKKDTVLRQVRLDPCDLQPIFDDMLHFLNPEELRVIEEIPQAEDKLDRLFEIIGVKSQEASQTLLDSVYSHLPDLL
Description: as §1

[6] = target: T6, DcR1 on transiently transfected cells (UniProt O14798 26-236, limits assumed)
T6 construct: whole, on cells
T6 sequence (looked up): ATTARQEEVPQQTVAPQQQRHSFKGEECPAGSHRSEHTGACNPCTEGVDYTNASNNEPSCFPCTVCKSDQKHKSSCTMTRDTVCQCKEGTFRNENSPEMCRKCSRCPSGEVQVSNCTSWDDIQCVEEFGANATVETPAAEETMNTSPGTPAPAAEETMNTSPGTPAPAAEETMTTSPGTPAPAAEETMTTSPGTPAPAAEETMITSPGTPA
Description: as §1

Measured: binding result

B1: FLAG-tagged soluble form of TNF-gamma-beta (aa 72-251) (ligand)
chain: LKGQEFAPSHQQVYAPLRADGDKPRAHLTVVRQTPTQHFKNQFPALHWEHELGLAFTKNRMNYTNKFLLIPESGDYFIYSQVTFRGMTSECSEIRQAGRPNKPDSITVVITKVTDSYPEPTQLLMGTKSVCEVGSNWFQPIYLGAMFSLQEGDKLMVNVSDISLVDYTKEDKTFFGAFLL
notes: also called FLAG-TL1β; FLAG-TNF-gamma-beta; not shown: FLAG tag of the pFLAG-CMV-1 vector at the amino terminus
no binding: [1] | [2] | [3] | [4] | [5] | [6]
